Patent US20090018093
Where two headings read alike, the source gives them in different places.

System: Immunoglobulin E (IgE) (Homo sapiens), P01854-1
Assay: filter

Sequence of Immunoglobulin E (IgE) (Homo sapiens), P01854-1 (P01854 other isoform, or with tags, fused parts or gaps): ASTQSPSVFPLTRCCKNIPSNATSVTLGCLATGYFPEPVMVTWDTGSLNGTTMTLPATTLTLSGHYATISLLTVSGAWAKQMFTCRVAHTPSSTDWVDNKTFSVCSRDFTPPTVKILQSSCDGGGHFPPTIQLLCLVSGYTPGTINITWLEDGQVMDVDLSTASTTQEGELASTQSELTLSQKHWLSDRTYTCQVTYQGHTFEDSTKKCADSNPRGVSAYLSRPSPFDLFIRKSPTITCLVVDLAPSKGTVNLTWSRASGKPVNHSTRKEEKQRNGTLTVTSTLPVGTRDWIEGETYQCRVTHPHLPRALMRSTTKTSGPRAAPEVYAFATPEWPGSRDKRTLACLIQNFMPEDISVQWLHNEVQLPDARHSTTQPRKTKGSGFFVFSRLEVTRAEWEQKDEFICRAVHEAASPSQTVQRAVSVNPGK

## AGCCUGGGNGACCCAUNNNGNNGNNGCUN [ARC3264]
ARC1666 chemistry with 2'-OMe I16, 3' idT, DPBS Mg/Ca, BSA, RT
  Kd: 0.36 nM

## AGCCUGGGGACCCAUGGGGGGC [ARC2344]
ARC1666 pattern without 3' idT [dI (written G) at 16,18,20, 2'-OMe 1-5,7,10-15,17,22, deoxy 6,8,9,16,18-21, PS 8/9,15/16,16/17,18/19,20/21, no 3' idT], dPBS + BSA, RT
  Kd: 0.41 nM

## GGAAUCAUACACAAGACGUCGCCAGAUUGAGUGUCGUGGUU [rRfY minimer SEQ 92]
2'-F C and U, KD2 22.0 nM, 1xSHMCK + tRNA
  Kd: 0.25 nM

## GGGCTACTTTATCCGTCCCTCCTAGTGGGTAGCCCC [DNA clone SEQ 140]
  Kd: 0.2 nM

## AGCCUGGGGACCCAUGGGGGGCU [ARC908]
dRmY, 7-deaza-dG at G17 [7-deaza-dG: 17, 2'-OMe: 3-5,11-13,15,22,23, deoxy: all A,G], dPBS Ca/Mg + BSA, RT
  Kd: 3 nM

## GCGGGCAAATTCATCCGTCCCTCCTAGTGGTTTGCCC [DNA clone SEQ 147]
  Kd: 0.5 nM

## AGCCUGGGNGACCCAUNNNGNNGNNGNCNUNN [ARC3273]
ARC2342 chemistry with 2'-OMe G8,I16, 3' idT, DPBS Mg/Ca, BSA, RT
  Kd: 0.86 nM

## GGGGCUACTTUATCCGUUCCTCCTAGTGGGTAGCCCC [ARC1417]
DNA with 2'-OMe 1-8,U11,U17,U18,C20,33-37, multiple PS, 3' idT [2'-OMe 1-8, U11, U17, U18, C20, 33-37, PS 9/10, 12/13, 14/15, 21/22, 24/25, 27/28, 30/31 (printed N = PS linkage, left out), 3' inverted dT at 38], dPBS Ca/Mg + BSA
  Kd: 27 nM

## GGGGCTACTTTATCCGTTCCTCCTAGTGGGTAGCCCC [ARC1402]
2'-OMe at 1-4,7,33-37, PS 19-20, 3' idT [2'-OMe at 1-4,7,33-37, PS linkage 19-20 (internal N = PS, not a base), 3' inverted dT cap (terminal N, left out)], DPBS Mg/Ca, BSA
  Kd: 2.1 nM

## AGCCUGGNGNGACCCAUNNNGNNGNNGCUN [ARC2975]
ARC1666 chemistry + PS 7-8, 3' idT, DPBS Mg/Ca, BSA, RT
  Kd: 0.04 nM

## GGGGCTACTTTATCCGTTCCUCCTAGTGGGTAGCCCCN [ARC1285]
2'-OMe U at 21, 3' idT, DPBS Mg/Ca, BSA
  Kd: 0.8 nM

## AGCCUGGGNGACCCAUNNNGNNNGNNGCUN [ARC2982]
ARC1666 chemistry + PS 17-18, 3' idT, DPBS Mg/Ca, BSA, RT
  Kd: 0.03 nM

## AGCCNUGGGNGACCCAUNNNGNNGNNGCUN [ARC2972]
ARC1666 chemistry + PS 4-5, 3' idT, DPBS Mg/Ca, BSA, RT
  Kd: 0.05 nM

## GGGGCTACTTTATCCGTTCCTCCTAGTGGGTAGCCCCT [ARC1268]
2'-OMe at 4, 3' idT [4 (2'-OMe G), 38 (3' inverted dT)], DPBS Mg/Ca, BSA
  Kd: 0.2 nM

## AGCCUGGGNGACCCAUNNNGNNGNNGNCNUNN [ARC3275]
ARC2342 chemistry with 2'-OMe G8,G9,I16, 3' idT, DPBS Mg/Ca, BSA, RT
  Kd: 0.67 nM

## AGCCUGGGNGACCCNAUNNNGNNGNNGCUN [ARC2980]
ARC1666 chemistry + PS 13-14, 3' idT, DPBS Mg/Ca, BSA, RT
  Kd: 0.04 nM

## GGGGCTACTTTATCCGTTCCTCCTAGTGGGTAGCCCC [ARC1414]
2'-OMe at 1-4,7,33-37, PS 31-32, 3' idT [2'-OMe at 1-4,7,33-37, PS 31-32, 3' idT cap after 37 (left out)], DPBS Mg/Ca, BSA
  Kd: 2.9 nM

## GGGGCTACTTUATCCGUUCCTCCTAGTGGGTAGCCCC [ARC1389]
2'-OMe at 1-4,7,11,17,18,20,33-37, 3' idT [2'-OMe: 1-4,7,11,17,18,20,33-37, 38 = 3' inverted dT], DPBS Mg/Ca, BSA
  Kd: 5.4 nM

## GGGGCTACTTTATCCGTTCCTCCTAGTGGGTAGCCCCT [ARC1387]
2'-OMe at 1-4,7,33-37, 3' idT [2'-OMe: 1-4,7,33-37, 38 = 3' inverted dT], DPBS Mg/Ca, BSA
  Kd: 2.4 nM

## AGCCUGGGGACCCAUGGGGGGCU [ARC1252]
2'-OMe C,U and G6, other A,G deoxy, 3' idT [2'-OMe: 3,4,5,6,11,12,13,15,22,23, 2'-deoxy: 1,2,7,8,9,10,14,16,17,18,19,20,21, 24 = 3' inverted dT], dPBS Ca/Mg + BSA, RT
  Kd: 98 nM

## GGGGCTACTTTATCCGTTCCTCCTAGTGGGTAGCCCCT [ARC1272]
2'-OMe at 8, 3' idT [8 (2'-OMe C), 38 (3' inverted dT)], DPBS Mg/Ca, BSA
  Kd: 0.2 nM

## AGGCUGGGGACCCAUGGGGGCCU [ARC1245]
2'-OMe/2'-deoxy mix, 3:21 pair changed, DPBS Mg/Ca, 0.1 mg/mL BSA, RT
  Kd: 198 nM

## AGCCUGGGGACCCAUGGGGGGCU [ARC1257]
2'-OMe A14 and all C,U, rest 2'-deoxy, 3' idT [2'-OMe at 3,4,5,11,12,13,14,15,22,23, 3'-idT at 24], DPBS Mg/Ca, 0.1 mg/mL BSA, RT
  Kd: 6 nM

## GGGGCTACTUTATCCGTTCCTCCTAGTGGGTAGCCCC [ARC1274]
2'-OMe U at 10, 3' idT [10 (2'-OMe U), 38 (3' inverted dT)], DPBS Mg/Ca, BSA
  Kd: 2 nM

## GGGGCTACTTTATCCGTTCCTCCTAGTGGGTAGCCCCT [ARC1286]
DNA with 2'-OMe C22, 3' idT [2'-OMe C22, 3' inverted dT38], dPBS Ca/Mg + BSA
  Kd: 7 nM

## GGGGCTACTTTATCCGTTCCTCCTAGTGGGTAGCCCCT [ARC1301]
2'-OMe at 37, 3' idT [2'-OMe: 37, 38 = 3' inverted dT], DPBS Mg/Ca, BSA
  Kd: 0.5 nM

## GGGGCTACTTTATCCGTTCCTCCTAGTGGGTAGCCCC [ARC1400]
2'-OMe at 1-4,7,33-37, PS 17-18, 3' idT [2'-OMe at 1-4,7,33-37, PS linkage 17-18 (internal N = PS, not a base), 3' inverted dT cap (terminal N, left out)], DPBS Mg/Ca, BSA
  Kd: 2.4 nM

## GGGGCTACTTTATCCGTTCCTCCTAGTGGGTAGCCCC [ARC1413]
2'-OMe at 1-4,7,33-37, PS 30-31, 3' idT [2'-OMe at 1-4,7,33-37, PS 30-31, 3' idT cap after 37 (left out)], DPBS Mg/Ca, BSA
  Kd: 3.3 nM

## GGGGCAGCTTTATCCGTACCTCCCAGTGGGCTGCCCC [ARC474]
  Kd: 0.7 nM

## AGCCUGGGGACCCAUGGGGGGCU [ARC1548]
ARC1335 chemistry with dI2, 3' idT [2=dI (G parent), 24=3' inverted dT], DPBS Mg/Ca, 0.1 mg/mL BSA, RT
  Kd: 3.3 nM

## GGGCAACTTTATCCGTTCCTCTTAGTGGGTTGCCCC [DNA clone SEQ 139]
  Kd: 0.4 nM

## GGGGCTACTTTATCCGTTCCTCCTAGTGGGTAGCCCCN [ARC1280]
2'-OMe at 16, 3' idT, DPBS Mg/Ca, BSA
  Kd: 0.6 nM

## AGCCUGGGGACCCAUGGGGGGCU [ARC906]
dRmY, 7-deaza-dG at G9 [7-deaza-dG: 9, 2'-OMe: 3-5,11-13,15,22,23, deoxy: all A,G], dPBS Ca/Mg + BSA, RT
  Kd: 88 nM

## AGCCUGGGNGNACCCAUNNNGNNGNNGCUN [ARC2976]
ARC1666 pattern plus PS between G9 and A10, 3' idT, dPBS Ca/Mg + BSA, RT
  Kd: 0.3 nM

## AGCCUGGGGACCCAUGGGGGGCU [ARC1264]
2'-OMe A1,G2,G20,G21 and all C,U, rest 2'-deoxy as printed, 3' idT [2'-OMe A1,G2,C3,C4,U5,C11,C12,C13,U15,G20,G21,C22,U23, rest 2'-deoxy, 3' inverted dT at 24], DPBS Mg/Ca, 0.1 mg/mL BSA, RT
  Kd: 47 nM

## GGGGCTACTTTATCCGTTCCTCCTAGTGGGTAGCCCCN [ARC1283]
2'-OMe at 19, 3' idT, DPBS Mg/Ca, BSA
  Kd: 0.6 nM

## GGGGCTACTTTATCCGTTCCTCCTAGTGGGTAGCCCCT [ARC656]
3' idT [38 = 3' inverted dT], dPBS Ca/Mg + BSA
  Kd: 0.2 nM

## AGCCUGGGNGACCCAUNNNGNNGNNGCUN [ARC3265]
ARC1666 chemistry with 2'-OMe G8,G9, 3' idT, DPBS Mg/Ca, BSA, RT
  Kd: 0.29 nM

## AGCCUGGGNGANCCCAUNNNGNNGNNGCUN [ARC2977]
ARC1666 chemistry + PS 10-11, 3' idT, DPBS Mg/Ca, BSA, RT
  Kd: 0.05 nM

## GGGAGAGGAGAGAACGUUCUACAUUGUGCUCCUGGGGCCCAGUGGGGAGCCACGCUGUCGAUCGAUCGAUCGAUG [ARC1995]
dRmY: 2'-deoxy A,G, 2'-OMe C,U, error 2, dPBS Ca/Mg + BSA, RT
  Kd: 4 nM

## GGGGCUACTTTATCCGTTCCTCCTAGTGGGTAGCCCC [ARC1388]
2'-OMe at 1-8,33-37, 3' idT [2'-OMe: 1-8,33-37, 38 = 3' inverted dT], DPBS Mg/Ca, BSA
  Kd: 4.4 nM

## AGCCUGGGNGACCCAUNNNGNNGNNGNCNUN [ARC2341]
ARC1666 chemistry + PS 21-22,22-23, 3' idT, DPBS Mg/Ca, BSA, RT
  Kd: 0.05 nM

## GGGAGAGGAGAGAACGUUCUACGAUCUGGGCGAGCCAGUCUGACUGAGGAAGCGCUGUCGAUCGAUCGAUCGAUGAAGGGCG [rRmY clone SEQ 56]
2'-OMe C,U, 2'-OH A,G, DPBS, 0.1 mg/mL tRNA, RT
  Kd: 500 nM

## AGCCUGGGGACCCAUGGGGGGCU [ARC905]
dRmY (2'-OMe C,U), 7-deaza-dG8 [7-deaza-dG at 8, 2'-OMe C3,C4,U5,C11,C12,C13,U15,C22,U23, A,G 2'-deoxy], DPBS Mg/Ca, 0.1 mg/mL BSA, RT
  Kd: 9 nM

## GGGGCTACTTTATCCGTTCCTCCTAGTGGGTAGCCCC [ARC1392]
2'-OMe at 1-4,7,33-37, PS 9-10, 3' idT [2'-OMe at 1-4,7,33-37, PS linkage 9-10 (internal N = PS, not a base), 3' inverted dT cap (terminal N, left out)], DPBS Mg/Ca, BSA
  Kd: 3 nM

## AGCCUGGGNGACCCAUNNNGNNGNNNGCUN [ARC2983]
ARC1666 chemistry + PS 19-20, 3' idT, DPBS Mg/Ca, BSA, RT
  Kd: 0.02 nM

## GGGGCTACTTTAUCCGTTCCTCCTAGTGGGTAGCCCC [ARC1277]
DNA with 2'-OMe U13, 3' idT [2'-OMe U13, 3' inverted dT38], dPBS Ca/Mg + BSA
  Kd: 6 nM

## AGCCUGGGGACCCAUGGGGGGCU [ARC1334]
2'-OMe G2,G7,A10,A14,G17 and all C,U, rest 2'-deoxy, 3' idT [2'-OMe G2,C3,C4,U5,G7,A10,C11,C12,C13,A14,U15,G17,C22,U23, 3' inverted dT at 24], DPBS Mg/Ca, 0.1 mg/mL BSA, RT
  Kd: 0.3 nM

## AGCCUGGGGACCCAUGGGGGG [ARC2345]
ARC1666 pattern without 3' idT [dI (written G) at 16,18,20, 2'-OMe 1-5,7,10-15,17, deoxy 6,8,9,16,18-21, PS 8/9,15/16,16/17,18/19,20/21, no 3' idT], dPBS + BSA, RT
  Kd: 29.3 nM

## AGCCUGGGGACCCAUGGGGGGCU [ARC1255]
2'-OMe G9 and all C,U, rest 2'-deoxy, 3' idT [2'-OMe at 3,4,5,9,11,12,13,15,22,23, 3'-idT at 24], DPBS Mg/Ca, 0.1 mg/mL BSA, RT
  Kd: 8 nM
